The text below walks through data of patent US20250236644A1, “De Novo Designed Stimulus-responsive Two-state Hinge Proteins” (University of Washington, priority 2024, published 2025).

In one test the test system is TAMRA-js007B. Briefly: FP titration and kinetics, hinge vs TAMRA-js007B. Format: binding. How it is done: (§1) All FP measurements were performed at 25° C. in 96-well plates (Corning 3686) using a Synergy Neo2™ plate reader and a 530/590 nm filter cube. The buffer for all FP measurements was 20 mM Tris-HCl, 100 mM NaCl, 0.05% v/v TWEEN20 at pH 8. Titrations were carried out in 96-well format, with 4 replicates per plate and 24 data points per titration (23 steps of two-fold serial dilution of hinges in the presence of TAMRA-labeled peptide at a constant concentration between 0.1 nM and 1 nM) with a final sample volume of 80 μl per well. Titration plates were incubated overnight at room temperature before measuring to ensure complete equilibration. The polarization signal S (as calculated by the Neo2™ software) was fitted to the equation
(§2) where fAB is the fraction of peptide that is bound, Atot is the absolute hinge concentration, Btot is the absolute peptide concentration, S0 is the baseline polarization of free peptide, and S1 is the change in polarization upon complex formation.
Fitting was performed using the scipy.optimize.curve_fit python function (53). Uncertainties for KD values are standard deviation errors calculated from the covariance matrix of the fits. In cases where the fitted KD was lower than the concentration of the labeled peptide Btot, we report the KD as KD<Btot. […]

A further test relates to TAMRA-cs074B. Briefly: Fluorescence polarization (FP) titration and kinetics, hinge vs TAMRA-cs074B. Format: binding. The following applies: 1 nM peptide cs074B, varying hinge; FIG. 10. How it is done: as §1, §2
(§3) Fitting was performed using the scipy.optimize.curve_fit python function (53). Uncertainties for KD values are standard deviation errors calculated from the covariance matrix of the fits. In cases where the fitted KD was lower than the concentration of the labeled peptide Btot, we report the KD as KD<Btot.
(§4) For FP kinetics experiments a 2× peptide solution and 8 different 2× hinge solutions at different concentrations were prepared separately. 40 μl of each hinge solution were mixed with 40 μl peptide solution using a multichannel pipet and the measurement was started immediately after mixing. Polarization signals S at each concentration were fitted individually to the equation
(§5) where S0 is the amplitude, S1 is the polarization at equilibrium, kapp is the apparent rate constant, t is the time after start of the measurement, and t0 is the dead time between mixing and start of the measurement. For each hinge-peptide pair, the apparent rate constants for 8 different concentrations are fitted to the equation
(§6) where koff and kon are observed off- and on rates and Atot is the absolute hinge concentration.
A general note: Fluorescence polarisation rises when a labelled molecule tumbles more slowly, as on binding a larger partner.

The next test has as its system TAMRA-cs201B. Briefly: FP titration and kinetics, hinge vs TAMRA-cs201B. Format: binding. The following applies: for binding in FP titration: 1 nM peptide cs201B, varying hinge, FIG. 10. How it is done:
as §1, §2, §3, §4, §5, §6

A further test concerns TAMRA-cs221B. Briefly: FP titration and kinetics, hinge vs TAMRA-cs221B. The format is binding. The conditions noted are these: for binding in FP titration: 1 nM peptide cs221B, varying hinge, FIG. 10; for peptide binding: FP; for kon: Effector TAMRA-cs221B, method FP. On the procedure:
as §1, §2, §3, §4, §5, §6

Test [1] relates to original peptides fused to superfolder green fluorescent protein (sfGFP). Nature of the test: SEC binding experiments with original peptides fused to sfGFP. The following applies: FIG. 17C. How it is done:
Individual hinge and sfGFP-fused peptides or 3hb were diluted in 20 mM Tris pH 8, 100 mM NaCl and mixed at approximately 1:1 concentrations. 0.5-1 mL of the resulting samples were injected onto a Superdex™ 200 Increase 10/300 GL columns and the absorbance at 230 nm was used as a readout for binding. For sfGFP-fused peptides, 473 nm was also used as readout. Mixtures were at a total concentration of 2. μM or higher.

Sequence of TAMRA-cs221B (as listed by the source): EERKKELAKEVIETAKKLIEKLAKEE
Sequence of TAMRA-cs201B (as listed by the source): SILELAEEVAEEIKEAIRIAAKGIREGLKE
Sequence of TAMRA-cs074B (as listed by the source): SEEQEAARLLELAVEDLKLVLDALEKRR
Sequence of TAMRA-js007B (as listed by the source): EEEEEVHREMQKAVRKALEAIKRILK

B1: csw13: cs201-derived hinge redesigned to bind peptide cs221B, SEQ ID NO:17 (protein)
chain: MSGNEEVKKLVEEAKKYLKEAEEYIKKAKKTGNEELLEKALKLLEKALELVKKAIELDPNNKEAIEQAVEIARALNEVAELLIEEAKKTGNEELLEKALEALEAANEALKLAIENNENDKELLAEIAVELAEVGVLLAEVLIEEAKKTGDPELLKLALEVLEAAVEALELALKLDPNNEEAVELAEEAAKLLEEVAKELKEEAKKTGDPELEKLAKEAEELAKRAKELAERQRGSGSHHWGSTHHHHHH
Regarding B1, the “binding in FP titration” value in the test on TAMRA-js007B (1 nM peptide js007B, varying hinge, FIG. 10) is reported as “not binding”; in the test with TAMRA-cs074B it was “not binding”; in the test on TAMRA-cs201B, “not binding”; with TAMRA-cs221B, “specifically binds”.

B2: cs230: designed hinge protein, SEQ ID NO:12 (protein)
chain: MSGTKEEKERIERIEKEVRSPDPENILEAVRKALELFRENPSEEAKELLKRAIEAALRSEDERAILEALRAALEAYRQGAGDREGLLEAIRVAIRRAAESEDERAILEAVRAARILLEAERTEEAKELLRVAIERAKKSPDPEAQREAKRAEEELRKEDGSGSHHWGSTHHHHHH
For B2, the “SEC binding experiment with sfGFP-fused original peptide” value in test [1] is “higher-order peaks”.

B3: cs201: designed hinge protein, SEQ ID NO:7 (protein)
chain: MSGDEEVQEAVERAEELREEAEELIKKARKTGDPELLRKALEALKEAVRAVREAIKRNPDNEEAIKTALRLARELRKVAKELIERARKTGDAELLKKALEAARVAVEAVRLAAEYNKENAEKMAELLVELAELAREVADVLIELAEKTGDPELLKKALEVLEEAVEAVRLAIEYDPDHEEAVETAKRLAEELRKVAELLEERAKETGDPELQELAKRAKEVADRARELAKKSNGSGSHHWGSTHHHHHH
As usually defined, the kon is the second-order rate constant of association. On to B3, for which, in the test with TAMRA-cs201B (Effector TAMRA-cs201B, method FP), the kon was determined as 6700 M⁻¹ s⁻¹.

B4: csw20: cs201-derived hinge redesigned to bind peptide cs074B, SEQ ID NO:18 (protein)
chain: MSGMEEVKELVEKAEELAKEAEELIKKAKKTGNPELLKEALRKLKEAVELAKEAVELDPEHEEAIELLARLAEKLLEVAKLLIELAKKTGNPELLKEALRALKEAREALRLAAEHAPEDAKLLARLAARLAELALLIAKILIELAKKTGNPELLLKALKVLTLAVEAVEAALEADPRLKEAVRVAKELAEVLKELAKLAKELAKKTGNEELKEAAKEAEEVAKRAEELAREAEGSGSHHWGSTHHHHHH
Turning to B4, the entries for the “binding in FP titration” value in the test with TAMRA-cs074B, in the test on TAMRA-cs201B and with TAMRA-cs221B were “most strongly”, “still binds” and “weaker than the new target”, respectively.

B5: js007: designed hinge protein, SEQ ID NO:11 (protein)
chain: MSGSEEVNERVKQLAEKAKEATDKEEVIEIVKELAELAKQSTDPNLVAEVVRALTEVAKTSTDTELIQEIVKVLLELARRLTDPQLLLEVLKSIAELLKELAEKTGNETAKLAALVAQIAAEVVEMALRAEKTHPGSEIVKLAVELVQKVAEIVLIAAQLMLDKPNSDEVRKVLKEVEKVAREALKALREAKRHPDSQKARDEIKEASQKAEEVKERIERAQEGSGSHHWGSTHHHHHH
Regarding B5, the kon in the test with TAMRA-js007B (Effector TAMRA-js007B, method FP) amounted to 78000 M⁻¹ s⁻¹.

B6: cs221_lockedX: cs221 variant with disulfide that locks state X, SEQ ID NO:19 (protein)
chain: MSGEMKEEIRRLAEELRERTKDEEVRELAREAARLAEESDDEEVKEVVKKALEAALKSKDEEVIRLLLLAAVCAAAAARSGSPEEKLEIAKKALELAMKSKDEEVIRLALLAAVLACRSDDEEVLKKVKEALEKAMESKDVEEIRERLREAVEVARAGSGSHHWGSTHHHHHH
For B6, the values for the peptide binding result with TAMRA-cs221B (oxidizing conditions (disulfide formed)) and in the test with TAMRA-cs221B (upon addition of reducing agent DTT) were “only weak residual binding” and “fully restored”, respectively.

B7: cs221_A73E: hinge cs221 with point mutation A73E (protein)
chain: MSGEMKEEIRRLAEELRERTKDEEVRELAREAARLAEESDDEEVKEVVKKALEAALKSKDEEVIRLLLLAAVLAAEAARSGSPEEKLEIAKKALELAMKSKDEEVIRLALLAAVLAARSDDEEVLKKVKEALEKAMESKDVEEIRERLREAVEVARAGSGSHHWGSTHHHHHH
Turning to B7, in the test on TAMRA-cs221B, the association rate constant (kon) turned out to be 1900 M⁻¹ s⁻¹.

B8: cs221_V111L: hinge cs221 with point mutation V111L (protein)
chain: MSGEMKEEIRRLAEELRERTKDEEVRELAREAARLAEESDDEEVKEVVKKALEAALKSKDEEVIRLLLLAAVLAAAAARSGSPEEKLEIAKKALELAMKSKDEEVIRLALLAALLAARSDDEEVLKKVKEALEKAMESKDVEEIRERLREAVEVARAGSGSHHWGSTHHHHHH
On to B8, for which, in the test with TAMRA-cs221B, the kon turned out to be 24300 M⁻¹ s⁻¹.

B9: cs221_lockedY: cs221 variant with disulfide that locks state Y, SEQ ID NO:20 (protein)
chain: MSGEMKEEIRRLAEELRERTKDEEVRELAREAARLAEESDDEEVKEVVKKALEAALKSKDEEVIRLLLCAAVLAAAAARSGSPEEKLEIAKKALELAMKSKDEEVIRLACLAAVLAARSDDEEVLKKVKEALEKAMESKDVEEIRERLREAVEVARAGSGSHHWGSTHHHHHH
As to B9, in the test on TAMRA-cs221B, the kon turned out to be 790000 M⁻¹ s⁻¹.

B10: cs221_V111L_A111T: state Y-stabilizing double mutant of hinge cs221 (protein)
chain: MSGEMKEEIRRLAEELRERTKDEEVRELAREAARLAEESDDEEVKEVVKKALEAALKSKDEEVIRLLLLAAVLAAAAARSGSPEEKLEIAKKALELAMKSKDEEVIRLALLAALLATRSDDEEVLKKVKEALEKAMESKDVEEIRERLREAVEVARAGSGSHHWGSTHHHHHH
With B10, the kon in the test with TAMRA-cs221B amounted to 76200 M⁻¹ s⁻¹.

B11: cs221: designed hinge protein, SEQ ID NO:10 (protein)
chain: MSGEMKEEIRRLAEELRERTKDEEVRELAREAARLAEESDDEEVKEVVKKALEAALKSKDEEVIRLLLLAAVLAAAAARSGSPEEKLEIAKKALELAMKSKDEEVIRLALLAAVLAARSDDEEVLKKVKEALEKAMESKDVEEIRERLREAVEVARAGSGSHHWGSTHHHHHH
Take B11: in the test on TAMRA-cs221B, the kon was found to be 3400 M⁻¹ s⁻¹.

B12: cs221_A114T: hinge cs221 with point mutation A114T (protein)
chain: MSGEMKEEIRRLAEELRERTKDEEVRELAREAARLAEESDDEEVKEVVKKALEAALKSKDEEVIRLLLLAAVLAAAAARSGSPEEKLEIAKKALELAMKSKDEEVIRLALLAAVLATRSDDEEVLKKVKEALEKAMESKDVEEIRERLREAVEVARAGSGSHHWGSTHHHHHH
Turning to B12, in the test on TAMRA-cs221B, the kon was 27700 M⁻¹ s⁻¹.

B13: cs221_L66T: hinge cs221 with point mutation L66T (protein)
chain: MSGEMKEEIRRLAEELRERTKDEEVRELAREAARLAEESDDEEVKEVVKKALEAALKSKDEEVIRLLLTAAVLAAAAARSGSPEEKLEIAKKALELAMKSKDEEVIRLALLAAVLAARSDDEEVLKKVKEALEKAMESKDVEEIRERLREAVEVARAGSGSHHWGSTHHHHHH
Consider B13, for which the kon with TAMRA-cs221B was determined as 2700 M⁻¹ s⁻¹.
